{"source": "paper PMC12636033", "about": "“Chemical Engineering of Transcription Factors Uncovered Cell-Permeable μMax Modulators”", "data": [{"target": "WT Max (Homo sapiens, UniProt P61244-2 13-93, M65Nle, norleucine written as M; other non-natural residues written as X)", "sequence (P61244 other isoform, or with tags, fused parts or gaps M65Nle)": "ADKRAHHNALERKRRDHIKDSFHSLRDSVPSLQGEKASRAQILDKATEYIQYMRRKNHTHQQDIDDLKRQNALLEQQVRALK", "test": "PBM; 50-200 nM protein; PBS, 2% milk, BSA, salmon testes DNA, 0.02% Triton X-100", "conditions": "chain copies: 2; label: surface-attached array probe", "values": [{"binder": "dBr_Jan07_38976 (dsDNA) DNA 1: CGACACAGAAAACAATTCCGACTTGCTTTCCGCGTGGTCTGTGTTCCGTTGTCCGTGCTG DNA 2: CAGCACGGACAACGGAACACAGACCACGCGGAAAGCAAGTCGGAATTGTTTTCTGTGTCG", "binding signal": "3.81 robust z of log adjusted intensity (ours), mean of two arrays"}, {"binder": "dBr_Jan07_11048 (dsDNA) DNA 1: CGAAATCTTACATGCTCTTGGGTCTAAGACGCACGTGTCTGTGTTCCGTTGTCCGTGCTG DNA 2: CAGCACGGACAACGGAACACAGACACGTGCGTCTTAGACCCAAGAGCATGTAAGATTTCG", "binding signal": "5.56 robust z of log adjusted intensity (ours), mean of two arrays"}, {"binder": "dBr_Jan07_17404 (dsDNA) DNA 1: TTGCGTGTTGTGTCTAATATCCAAACTACACCACGTGTCTGTGTTCCGTTGTCCGTGCTG DNA 2: CAGCACGGACAACGGAACACAGACACGTGGTGTAGTTTGGATATTAGACACAACACGCAA", "binding signal": "4.24 robust z of log adjusted intensity (ours), mean of two arrays"}, {"binder": "dBr_Jan07_34042 (dsDNA) DNA 1: GCCGAAAGTCCCCCACGTGGTCAGTAAAAGAGAAGAGTCTGTGTTCCGTTGTCCGTGCTG DNA 2: CAGCACGGACAACGGAACACAGACTCTTCTCTTTTACTGACCACGTGGGGGACTTTCGGC", "binding signal": "4.32 robust z of log adjusted intensity (ours), mean of two arrays"}, {"binder": "dBr_Jan07_31967 (dsDNA) DNA 1: GTGTCACGTGTCGTTCATCCTTATTAACTAGGGTCTGTCTGTGTTCCGTTGTCCGTGCTG DNA 2: CAGCACGGACAACGGAACACAGACAGACCCTAGTTAATAAGGATGAACGACACGTGACAC", "binding signal": "3.79 robust z of log adjusted intensity (ours), mean of two arrays"}, {"binder": "dBr_Jan07_01656 (dsDNA) DNA 1: TCGATCACACACGTGCTTATTGTACCAAACACATACGTCTGTGTTCCGTTGTCCGTGCTG DNA 2: CAGCACGGACAACGGAACACAGACGTATGTGTTTGGTACAATAAGCACGTGTGTGATCGA", "binding signal": "3.68 robust z of log adjusted intensity (ours), mean of two arrays"}, {"binder": "dBr_Jan07_37497 (dsDNA) DNA 1: CCAGTTAGTAACACGTGTCCACTCCTTGTCGTACAGGTCTGTGTTCCGTTGTCCGTGCTG DNA 2: CAGCACGGACAACGGAACACAGACCTGTACGACAAGGAGTGGACACGTGTTACTAACTGG", "binding signal": "4.27 robust z of log adjusted intensity (ours), mean of two arrays"}, {"binder": "dBr_Jan07_17844 (dsDNA) DNA 1: AATGGACTCGTTTTTTTTGCGTTATTAGACCACGCGGTCTGTGTTCCGTTGTCCGTGCTG DNA 2: CAGCACGGACAACGGAACACAGACCGCGTGGTCTAATAACGCAAAAAAAACGAGTCCATT", "binding signal": "3.78 robust z of log adjusted intensity (ours), mean of two arrays"}, {"binder": "dBr_Jan07_19348 (dsDNA) DNA 1: ACCTCTGTAAGTCTGAGTCTGATAACCACGTGTCGGGTCTGTGTTCCGTTGTCCGTGCTG DNA 2: CAGCACGGACAACGGAACACAGACCCGACACGTGGTTATCAGACTCAGACTTACAGAGGT", "binding signal": "5.01 robust z of log adjusted intensity (ours), mean of two arrays"}, {"binder": "dBr_Jan07_15832 (dsDNA) DNA 1: TGCTAGGTGCGGGGCGTGCCATTGTACCACGTGGCTGTCTGTGTTCCGTTGTCCGTGCTG DNA 2: CAGCACGGACAACGGAACACAGACAGCCACGTGGTACAATGGCACGCCCCGCACCTAGCA", "binding signal": "3.84 robust z of log adjusted intensity (ours), mean of two arrays"}, {"binder": "dBr_Jan07_27753 (dsDNA) DNA 1: TTTTCATACGAACTTCGAGCTCCCCACGTGGTTCTTGTCTGTGTTCCGTTGTCCGTGCTG DNA 2: CAGCACGGACAACGGAACACAGACAAGAACCACGTGGGGAGCTCGAAGTTCGTATGAAAA", "binding signal": "5.1 robust z of log adjusted intensity (ours), mean of two arrays"}, {"binder": "dBr_Jan07_04601 (dsDNA) DNA 1: GGTGTACGCTAAGGATGCTACTACGACCTAACACGTGTCTGTGTTCCGTTGTCCGTGCTG DNA 2: CAGCACGGACAACGGAACACAGACACGTGTTAGGTCGTAGTAGCATCCTTAGCGTACACC", "binding signal": "3.7 robust z of log adjusted intensity (ours), mean of two arrays"}, {"binder": "dBr_Jan07_31500 (dsDNA) DNA 1: CTCCGTGGGTTCGTGAGTTCATGGCGAAAAGCACGTGTCTGTGTTCCGTTGTCCGTGCTG DNA 2: CAGCACGGACAACGGAACACAGACACGTGCTTTTCGCCATGAACTCACGAACCCACGGAG", "binding signal": "4.51 robust z of log adjusted intensity (ours), mean of two arrays"}, {"binder": "dBr_Jan07_17964 (dsDNA) DNA 1: ACTTGAATGAGGGCCTTTGATCTGCTTTACTCACGTGTCTGTGTTCCGTTGTCCGTGCTG DNA 2: CAGCACGGACAACGGAACACAGACACGTGAGTAAAGCAGATCAAAGGCCCTCATTCAAGT", "binding signal": "3.59 robust z of log adjusted intensity (ours), mean of two arrays"}, {"binder": "dBr_Jan07_06713 (dsDNA) DNA 1: AGTAACGGGGTCGCTTGATGGGCTCTTCCGCGTGGAGTCTGTGTTCCGTTGTCCGTGCTG DNA 2: CAGCACGGACAACGGAACACAGACTCCACGCGGAAGAGCCCATCAAGCGACCCCGTTACT", "binding signal": "3.79 robust z of log adjusted intensity (ours), mean of two arrays"}, {"binder": "dBr_Jan07_20507 (dsDNA) DNA 1: GTGCCCGATTGTCTACGGCACCACGTGTGTTACCAGGTCTGTGTTCCGTTGTCCGTGCTG DNA 2: CAGCACGGACAACGGAACACAGACCTGGTAACACACGTGGTGCCGTAGACAATCGGGCAC", "binding signal": "4.13 robust z of log adjusted intensity (ours), mean of two arrays"}, {"binder": "dBr_Jan07_27761 (dsDNA) DNA 1: ATATCGACCTTTTATTGAAAACCGGGAGTCTCACGTGTCTGTGTTCCGTTGTCCGTGCTG DNA 2: CAGCACGGACAACGGAACACAGACACGTGAGACTCCCGGTTTTCAATAAAAGGTCGATAT", "binding signal": "3.44 robust z of log adjusted intensity (ours), mean of two arrays"}, {"binder": "dBr_Jan07_38389 (dsDNA) DNA 1: CAAGCCTATCGCGGCCAATCGGTAAGCACGTGACTAGTCTGTGTTCCGTTGTCCGTGCTG DNA 2: CAGCACGGACAACGGAACACAGACTAGTCACGTGCTTACCGATTGGCCGCGATAGGCTTG", "binding signal": "3.67 robust z of log adjusted intensity (ours), mean of two arrays"}, {"binder": "dBr_Jan07_02206 (dsDNA) DNA 1: GGCAGTCGGTCGTTCCAGATATTAGGATCTCCACGTGTCTGTGTTCCGTTGTCCGTGCTG DNA 2: CAGCACGGACAACGGAACACAGACACGTGGAGATCCTAATATCTGGAACGACCGACTGCC", "binding signal": "3.71 robust z of log adjusted intensity (ours), mean of two arrays"}, {"binder": "dBr_Jan07_24740 (dsDNA) DNA 1: ATAGAGCGTCAGAATAGTGACATACACGTGGTCCCCGTCTGTGTTCCGTTGTCCGTGCTG DNA 2: CAGCACGGACAACGGAACACAGACGGGGACCACGTGTATGTCACTATTCTGACGCTCTAT", "binding signal": "3.51 robust z of log adjusted intensity (ours), mean of two arrays"}, {"binder": "dBr_Jan07_15201 (dsDNA) DNA 1: TTGCCTGGGATTAGATTCTACGCTCACGATGCACGTGTCTGTGTTCCGTTGTCCGTGCTG DNA 2: CAGCACGGACAACGGAACACAGACACGTGCATCGTGAGCGTAGAATCTAATCCCAGGCAA", "binding signal": "3.45 robust z of log adjusted intensity (ours), mean of two arrays"}, {"binder": "dBr_Jan07_18911 (dsDNA) DNA 1: ACAAACCCCGCACGTGCCTTCGCCCCCTCCTATGCGGTCTGTGTTCCGTTGTCCGTGCTG DNA 2: CAGCACGGACAACGGAACACAGACCGCATAGGAGGGGGCGAAGGCACGTGCGGGGTTTGT", "binding signal": "3.79 robust z of log adjusted intensity (ours), mean of two arrays"}, {"binder": "dBr_Jan07_14484 (dsDNA) DNA 1: CTGCAGTTCTACTGTATCCACGACATAGAGACACGTGTCTGTGTTCCGTTGTCCGTGCTG DNA 2: CAGCACGGACAACGGAACACAGACACGTGTCTCTATGTCGTGGATACAGTAGAACTGCAG", "binding signal": "5.27 robust z of log adjusted intensity (ours), mean of two arrays"}, {"binder": "dBr_Jan07_05071 (dsDNA) DNA 1: CGTGTAACCTTCAGGCACGTGGTTTAATCGTTATCCGTCTGTGTTCCGTTGTCCGTGCTG DNA 2: CAGCACGGACAACGGAACACAGACGGATAACGATTAAACCACGTGCCTGAAGGTTACACG", "binding signal": "4.32 robust z of log adjusted intensity (ours), mean of two arrays"}, {"binder": "dBr_Jan07_23401 (dsDNA) DNA 1: TCTATGCTCGCGGATGCCCTTAAACTAGGCACGTGTGTCTGTGTTCCGTTGTCCGTGCTG DNA 2: CAGCACGGACAACGGAACACAGACACACGTGCCTAGTTTAAGGGCATCCGCGAGCATAGA", "binding signal": "3.69 robust z of log adjusted intensity (ours), mean of two arrays"}, {"binder": "dBr_Jan07_09181 (dsDNA) DNA 1: CACATTATTTCACACGTGGACGGCACCCACAAACACGTCTGTGTTCCGTTGTCCGTGCTG DNA 2: CAGCACGGACAACGGAACACAGACGTGTTTGTGGGTGCCGTCCACGTGTGAAATAATGTG", "binding signal": "3.99 robust z of log adjusted intensity (ours), mean of two arrays"}, {"binder": "dBr_Jan07_24960 (dsDNA) DNA 1: CGCAAAGCATTATCAACCTGGGTGCCTATCACGTGGGTCTGTGTTCCGTTGTCCGTGCTG DNA 2: CAGCACGGACAACGGAACACAGACCCACGTGATAGGCACCCAGGTTGATAATGCTTTGCG", "binding signal": "4.08 robust z of log adjusted intensity (ours), mean of two arrays"}, {"binder": "dBr_Jan07_15488 (dsDNA) DNA 1: TAGTAGTCGTTGCTAGCTGCAAGGAATGGCGCACGTGTCTGTGTTCCGTTGTCCGTGCTG DNA 2: CAGCACGGACAACGGAACACAGACACGTGCGCCATTCCTTGCAGCTAGCAACGACTACTA", "binding signal": "3.81 robust z of log adjusted intensity (ours), mean of two arrays"}, {"binder": "dBr_Jan07_01852 (dsDNA) DNA 1: AGGAGTCTTGCCGCACGGTCCCCGTCTTATGCACGTGTCTGTGTTCCGTTGTCCGTGCTG DNA 2: CAGCACGGACAACGGAACACAGACACGTGCATAAGACGGGGACCGTGCGGCAAGACTCCT", "binding signal": "3.5 robust z of log adjusted intensity (ours), mean of two arrays"}, {"binder": "dBr_Jan07_23034 (dsDNA) DNA 1: TCCGTACGGTCTCGTTCCATAGCTTGCTACCATGTGGTCTGTGTTCCGTTGTCCGTGCTG DNA 2: CAGCACGGACAACGGAACACAGACCACATGGTAGCAAGCTATGGAACGAGACCGTACGGA", "binding signal": "3.64 robust z of log adjusted intensity (ours), mean of two arrays"}, {"binder": "dBr_Jan07_23485 (dsDNA) DNA 1: CAGTGTAGAAAGTGAACACGTGTGACACGCCTGGTTGTCTGTGTTCCGTTGTCCGTGCTG DNA 2: CAGCACGGACAACGGAACACAGACAACCAGGCGTGTCACACGTGTTCACTTTCTACACTG", "binding signal": "4.26 robust z of log adjusted intensity (ours), mean of two arrays"}, {"binder": "dBr_Jan07_30456 (dsDNA) DNA 1: GGCGTTGTCAGGAAGGATTGGCTGTCGTCAACACGTGTCTGTGTTCCGTTGTCCGTGCTG DNA 2: CAGCACGGACAACGGAACACAGACACGTGTTGACGACAGCCAATCCTTCCTGACAACGCC", "binding signal": "3.62 robust z of log adjusted intensity (ours), mean of two arrays"}, {"binder": "dBr_Jan07_07015 (dsDNA) DNA 1: CGATACTGTATCGCATGGACAGCACGTGCAATTAGGGTCTGTGTTCCGTTGTCCGTGCTG DNA 2: CAGCACGGACAACGGAACACAGACCCTAATTGCACGTGCTGTCCATGCGATACAGTATCG", "binding signal": "3.94 robust z of log adjusted intensity (ours), mean of two arrays"}]}]}
